# Tested on: pancreatic beta cells
# Details: in vivo, 70 mg/kg
# Method: 70 mg of Streptozotocin (STZ), which is selectively toxic to the pancreatic beta cells, was intraperitoneally administered to a rat per kilogram of the weight of the rat. Thus, a diabetic rat whose pancreatic beta cells were damaged was prepared. Next, ^68Ga-DOTA-octreotide (PET probe) was intravenously administered to the model rat in accordance with the method in Example 1. Next, in accordance with the method in Example 1, the abdomen of the model rat was scanned with the use of a PET and image reconstruction was performed. […] Further, as in Example 1, organs etc. were removed from the model rat after the scan, and radioactivity in each of the organs etc. was quantified.
smiles,measurement,value
"C[C@@H](O)[C@@H]1NC(=O)[C@H](CCCCN)NC(=O)[C@@H](Cc2c[nH]c3ccccc23)NC(=O)[C@H](Cc2ccccc2)NC(=O)[C@@H](NC(=O)[C@@H](Cc2ccccc2)NC(=O)CN2CCN(CC(=O)O)CCN(CC(=O)O)CCN(CC(=O)O)CC2)CSSC[C@@H](C(=O)N[C@H](CO)[C@@H](C)O)NC1=O [^68Ga-DOTA-octreotide, metal not drawn]","accumulation of the PET probe in kidney and liver (PET image), diabetic model rat",observed

# Reference: US20120177571A1, “PANCREATIC ENDOCRINE CELL INDICATING AGENT AND UTILIZATION OF SAME” (RIKEN, priority 2009, published 2012)
